The record followed here is US20180021429A1, “ANTICANCER AGENTS OR ANTIMETASTATIC AGENTS USING FSTL1 AND COMBINATION DRUG THEREOF” (PHARMA FOODS INTERNATIONAL CO., LTD., priority 2015, published 2018).

The test system of experiment [1] is mouse colorectal cancer CT26 cell-transplanted models. Put plainly: In vivo colorectal cancer model (Example 20). Also on record: species or system BALB/c mice. The following applies: intraperitoneal 10 mg/kg on days 4 and 7. The procedure: (§1) Procedures and methods of the experiment were basically performed under substantially the same conditions as in the bone metastasis model experiments of Examples 17 to 19 except that bone metastasis was not evaluated. Specifically, drug efficacy evaluation was conducted using mouse tumor models other than Snail-positive tumor bone metastasis models. The drug efficacy of the anti-FSTL1 antibody was evaluated using cancer-bearing models of BALB/c mice different in strain from the C57BL/6 mice used in the preceding tests. The test was conducted by changing only the amount of tumor implanted, antibody administration timing, and assay timing. • Day 0: transplantation of tumor cells (5×10^5 cells subcutaneously & 5×10^5 cells intravenously) Days 4 and 7: intraperitoneal administration of the antibody (10 mg/kg) • Day 14: drug efficacy evaluation (subcutaneous tumor growth (FIG. 14A) and lung metastasis (FIG. 14B))
For lung metastasis, the number of metastatic nodules in the lung was macroscopically counted. The tumor volumes of the mice were measured 7, 11, and 14 days after tumor implantation.

The test system of experiment [2] is mouse breast cancer 4T1 cell-transplanted models. Briefly: In vivo breast cancer model (Example 21). Also on record: species or system BALB/c mice. The following applies: intraperitoneal 10 mg/kg on days 4 and 7; day 14. The procedure:
as §1, with “performed according to Examples 17 to 20” for “performed”, “20. Drug” for “19 except that bone metastasis was not evaluated. Specifically, drug”, “Changes were made as follows.” for “The test was conducted by changing only the amount of tumor implanted, antibody administration timing, and assay timing.”, “growth)” for “growth (FIG. 14A) and lung metastasis (FIG. 14B))”
The tumor volumes of the mice were measured 4, 7, 11, and 14 days after tumor implantation.

The test system of experiment [3] is mouse lymphoma EL4. Put plainly: In vivo lymphoma model (Example 23). Particulars: intraperitoneal 10 mg/kg on days 3 and 6; vs control antibody. The procedure:
(§2) The drug efficacy of the anti-FSTL1 antibody was evaluated according to Examples 17 to 20 using mouse lymphoma EL4, which is a cancer type having enhanced FSTL1 expression.
(§3) 1. Experiment Group (n=5) • 1. Mouse lymphoma EL4+control IgG (anti-DNP mAb) • 2. Mouse lymphoma EL4+anti-FSTL1 mAb (#6-55)
(§4) • Day 0: transplantation of tumor cells (1×10^6 cells subcutaneously & 1×10^6 cells intravenously) • Day 3: intraperitoneal administration of the antibody (first dose, corresponding to 200 μg/mouse=10 mg/kg) • Day 6: intraperitoneal administration of the antibody (second dose, corresponding to 200 μg/mouse=10 mg/kg) • Day 15: various immunological assays
(§5) • Effects on the growth of subcutaneous tumor (calculation of tumor volume by tumor size measurement): measured 3, 6, and 10 days after tumor implantation

Experiment [4] has as its system mouse colorectal cancer CT26 cells. Briefly: Mouse colorectal cancer CT26 cell-transplanted model (Example 20). The format is in vivo. How it is done:
as §1, with “108A)” for “14A)”, “108B)) For lung metastasis, the number of metastatic nodules in the lung was macroscopically counted. The tumor volumes of the mice were measured 7, 11, and 14 days after tumor implantation.” for “14B))”

Experiment [5] deals with mouse lymphoma EL4. Put plainly: In vivo, mouse lymphoma EL4 (Example 23). The following applies: intraperitoneal 10 mg/kg on days 3 and 6, vs control antibody. The procedure:
as §2, §3, §4, §5

B1: #6-55: chicken-mouse chimeric anti-FSTL1 antibody clone; variable regions SEQ ID NO: 783 (light), 785 (heavy) (antibody, V domains shown)
VH: AVTLDESGGGLQTPGGALSLVCKGSGFTFTSVTMQWVRQAPGKGLEWVASVCSGSSTYYAPAVKGRATISRDNGQSTVRLQLSNLRPEDTGTYYCAKIAGRARWSCTSAAYNIDAWGHGTEVIVSS
VL: ASTQPSSVSAIPGETVKITCSGGGNNYGWYQQRSPGSAPVTVIYYNDNRPSNIPSRFSGSTSGSTSTLTITGVQADDEAIYYCGSWDSNTDSGIFGAGTTLTVL
modifications: mouse constant regions
Turning to B1, the “growth and lung metastasis of CT26 subcutaneous tumor” value was “very strongly suppressed the growth and lung metastasis of CT26 subcutaneous tumor” in experiment [1] (day 14); “very strongly suppressed” in experiment [4] (BALB/c mice, intraperitoneal 10 mg/kg on days 4 and 7, day 14, FIG. 108). For the same molecule, in experiment [1] (n=5), the “solid tumor disappearance (mice)” value is reported as “three out of the five mice”. The “growth of 4T1 subcutaneous tumor” value in experiment [2] was “significantly suppressed”. The subcutaneous tumor growth result in experiment [3] and in experiment [5] was “strongly suppressed” throughout. Besides, the “number of metastatic nodules in the lung” value in experiment [4] (day 14, control antibody group 14 nodules on average, FIG. 108B) is 0 to 3 nodules. For the same molecule, the “disappearance of solid tumor (mice)” value in experiment [4] (n=5, intraperitoneal 10 mg/kg on days 4 and 7) is “three out of the five mice”.
